In patent publication US20210395319A1 (OLIGOMERIX, published 2021):

Molecular target: the molecule itself
Assay: self-association: overnight incubation at 37 °C in pH neutral buffer, SDS-PAGE on a 4-20% gradient gel
Description: Protein preparations of the N-terminal (21.5 kDa) and C-terminal (18.5 kDa) were incubated at 4 μM concentration in pH neutral buffer and incubated overnight at 37° C.

B1: N-terminal portion of tau protein (amino acids 1-184) (other, UniProt P10636-8 1-184, looked up)
chain: MAEPRQEFEVMEDHAGTYGLGDRKDQGGYTMHQDQEGDTDAGLKESPLQTPTEDGSEEPGSETSDAKSTPTAEDVTAPLVDEGAPGKQAAAQPHTEIPEGTTAEEAGIGDTPSLEDEAAGHVTQARMVSKSKDGTGSDDKKAKGADGKTKIATPRGAAPPGQKGQANATRIPAKTPPAPKTPPS
notes: range 1-184; Printed mass 21.5 kDa, charge approximately -7.2; also called tau fragment (21.5 KD) that encompasses the N-terminus; N-terminal (21.5 kDa)
binding result: no binding (tested: 4 µM)
